Each block holds one binder with its values, some of them ahead of it.
Tests used:
[1] = molecular target: T1, Human C3d crystallised with Fab(3d8b) (human, UniProt P01024); experiment: crystal structure; Fab(3d8b):C3d complex, sitting-drop vapor diffusion at 20°C, PEG, pH 7.0 to 8.5; 1.75 Å; PDB 7UE9; conditions: both partners purified
T1 construct: human C3d as in PDB 7UE9 chain C

[2] = molecular target: T2, C3d deposited in the kidneys of CfH^-/- mice (mouse (endogenous in CfH^-/- mouse …, UniProt P01027)); experiment: immunostaining of cells or tissue; proteins injected into CfH^-/- mice; frozen kidney sections taken 7 or 14 days post-dose and stained with anti-Crry or anti-human IgG4; conditions: one partner purified
T2 construct: C3d-containing fragments of mouse complement C3 deposited in renal glomeruli; source: endogenous, kidney glomeruli of CfH^-/- mice
T2 sequence (P01027 1002-1303): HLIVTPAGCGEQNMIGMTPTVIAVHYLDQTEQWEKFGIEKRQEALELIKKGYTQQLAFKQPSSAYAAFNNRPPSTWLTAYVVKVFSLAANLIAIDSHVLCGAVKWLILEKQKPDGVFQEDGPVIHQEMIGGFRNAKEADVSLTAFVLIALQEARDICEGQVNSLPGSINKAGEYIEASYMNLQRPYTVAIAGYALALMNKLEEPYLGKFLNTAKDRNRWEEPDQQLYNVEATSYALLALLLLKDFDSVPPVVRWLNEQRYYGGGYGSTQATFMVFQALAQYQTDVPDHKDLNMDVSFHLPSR

T1 sequence (P01024 1002-1303): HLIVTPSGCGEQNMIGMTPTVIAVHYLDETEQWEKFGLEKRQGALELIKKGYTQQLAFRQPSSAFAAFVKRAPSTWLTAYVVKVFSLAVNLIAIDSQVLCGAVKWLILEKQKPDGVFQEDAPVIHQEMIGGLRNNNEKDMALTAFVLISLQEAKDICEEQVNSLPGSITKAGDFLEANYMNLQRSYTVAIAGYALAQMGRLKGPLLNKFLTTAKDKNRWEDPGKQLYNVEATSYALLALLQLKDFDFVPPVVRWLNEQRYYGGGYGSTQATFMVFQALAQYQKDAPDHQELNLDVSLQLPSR

binding result [1]: binds
B1: humanized Fab(3d8b) (Fab, V domains shown)
VH: QVQLVQSGAEVKKPGASVKVSCKASGYTFTNYYINWVRQAPGQGLEWMGVINPYSGGTSYNQKFKGRVTMTVDTSTSTAYMELSSLRSEDTAVYFCSSPYWGQGTLVTVSS
VL: DVVMTQSPLSLPVTLGQPASISCKSSQSLLDSDGKTYLNWFQQRPGQSPRRLIYLVSKLDSGVPDRFSGSGSGTDFTLKISRVEAEDVGVYYCWQGTHFPRTFGGGTKVEIK
notes: heavy chain (H) of PDB 7UE9; light chain (L) of PDB 7UE9; CDRs of mouse clone 3d8b grafted onto a human framework; solved with an IgG4-derived Fab (PDB 5DK3) as search model; also called 3d8b Fab

binding result [2]: binds
B2: humanized C3d mAb-CR1_(1-10) (antibody, V domains shown)
VH: B1 VH
VL: B1 VL
notes: humanised heavy variable region with the CDRs of 3d8b; as the variable region of the heavy chain of m3 (PDB 7UE9 chain H); human IgG4 heavy constant region, hinge stabilized and Fc-mutated; (Gly4Ser)2 linker; human complement receptor type 1 (CR1), the first 10 consensus repeats; humanised light chain with the CDRs of 3d8b; as the light chain of m3 (PDB 7UE9 chain L); also called lead fusion …

binding result [2]: binds
B3: humanized C3d mAb (CDRs of 3d8b grafted onto human IgG4 S228P, L235E) (antibody, V domains shown)
VH: B1 VH
VL: B1 VL
notes: humanised heavy variable region with the CDRs of 3d8b; as the variable region of the heavy chain of m3 (PDB 7UE9 chain H); human IgG4 heavy constant region, hinge stabilized and Fc-mutated; humanised light chain with the CDRs of 3d8b; as the light chain of m3 (PDB 7UE9 chain L); IgG4; source: CHO cells, transient, purified (Protein A or IMAC, SEC)

— publication PMC9244803, “Development and Optimization of Bifunctional Fusion Proteins to Locally Modulate Complement Activation in Diseased Tissue” (Frontiers in Immunology, 2022)
